Laboratory results as given in the nanobody polyreactivity screen of Harvey et al. (2022).

Experiment: yeast display, Sf9 membrane polyspecificity reagent, FACS + sequencing; frameworks hold sequencing errors
Outline: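 In a synthetic yeast display library (Saccharomyces cerevisiae BJ5465), nanobody expression was induced with galactose for 36–48 hours. FACS gates were set low and high (top ~1%) using anti-HA fluorescence for expression and streptavidin fluorescence for binding of the Sf9 membrane reagent. Each polyreactivity label is drawn from the gate of origin.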

| Sequence | polyreactivity (PSR sort gate) |
| --- | --- |
| QVQLVESVGGFVQARGSLRLSCAASGFTFSYNAMRWYSQAPGKERELVATIRSSGGSTNYADSVKGRFTISRDNAKNTVYVQMNSLKPEDTAVYYCAADFSYYSTYDYWGLGTQVTVSS | low polyreactivity |
| QVQLVESGGGLVQAGGSLRLSCAASGGTFPWYSMGWYRPATGKEREMVAGITWGGVSTYADSVKGRFTISRDNAKNTVYLQMNSLKQEDTAVYYCASRTSFTRGPWYKFYYWGQGTQVTVSS | high polyreactivity |
| QVQLVESGGGLVQAGGSIRLSCAASGGTFKTYVMGWNRQAPVKERELVAAINTSGTSTYYADSVKGRFTISRDNAKIKVYLQMNSLKPEDTAVYYCATRYRYTYYWGQGTQVTVSS | high polyreactivity |
| QVHLVESGGGLVQAGGSLRLSCAASARTFTQNAMVWYRQAPGKERELVAAITRSGGSTYYADSVKGRFTISRDYAKNTVYLQMNSLKPEDTAVYYFIKYTHYYDYDYWGQGTQVTVSS | high polyreactivity |
| QVQIVESGGGLVQAGGSLRLSCAASGSIFTFYAMGWYRQAPGKERELVATINRIGGNTYYADSVKGRFTISRDNAKNTVYLQINSLKPEDTAVYYCAAKPTYRGYGYGSWGQGTQVTVSS | low polyreactivity |
| QVQLVESGGGLVQAGGSLRLSCAASGFTFRDYAMGWYRPAPGKERELVAAIDIGTTTYYADSVKGRFTISRDNAKNTVYLQMNSLKPEDSAVYYCNKGTNRSGGYDSWGQGTQVTVSS | low polyreactivity |
| QVQLVESGGGLVQAGGSLRLICAASGSTFVSNAMGWYRQAPGKERELVAAITVSGGRTYYADSVKGRFTISRDNAKNTVYLQMNSLKPEDTAVYYCAAQIYGKYDYWGQGTQVTVSS | low polyreactivity |
| QVQLVESGGGLVQAGGSLRLSCAASGLIFRHYAMGWYRQAPGKERELVAAIDYSGGSTYYADSVKGRFTISRDNAKNTVYLQMNSLKPEDTAVYYCAADYFWLYYSEYGYWGQGTQVTVSS | low polyreactivity |
| QVQIGQSGGGLVQAGGSLRLSCAASGRIIWSNAMGWNRQAPGKERELVAAIRNTGSTNYADSVKGRFTISRDNAKNTVYLQMNSLKPEDTEVYYCAADRATYCTYAYGYWGQGTQVTVSS | high polyreactivity |
| QVQLVESGGGLVQAGGSLRLSCAASGRIFYYYVMGWYRQAPGKERELVAAISSRGGSTYYADSVKGRFTISRDNAKNTVYLQMNSLKPEDTAVYYCAAEYGSISLRYPYYWRYDYWGQGTQVTVSS | high polyreactivity |
| QVQLVESGGGLVHAVGSHRLSCTASGSTFVAYPMGWYRQAPGKERELVAAITSSGGRTYYADSVKGRFTISRDNSKNTVYLQINSLKPEDTAVYYCAAVTHGRYDWGQGTQVTVSS | high polyreactivity |
| QVQLVESGGGLVQAGGSLRLSCAASGRLFHPYAMGWYRQAPGKERELVARITTSGGSTSYADSVKGRFTISRDNAKNTVYLQMNSLKPEDTAVYYSAADRARYYSEYDYWGQGTQVTVSS | low polyreactivity |
| QVQLVESGGGLVQAGGSLRLSCAASGRIFRPYTMGWYRQAPGKERELVAAITSGSSTNYADSVKGRFTISRDNAKNTVYLHMNSLKPEDTAVYYCAVKVRIFASYYPFYYWGQGSQVTVSS | high polyreactivity |
| QVQLVESGGGLVQGGGSLRLSCAASGRTFAPNAMGWYRQAPGKERELVAAISYNSGTTYYADSVKGRFTISRDNAKNTVYLQMNSLKPEDTAVYYCAAGHWVGPYQAMEYWGQGTQVTVSS | high polyreactivity |
| QVQLVESGGGLVQAGGSLRLSCAASGLIFRVYAMGRYRQAPGKERELVATITRGGRTYYADSVKGRFTISRDNAKNTVYLQMNSLKPEDTAVYYCAVLSVRRSYNYWGQGTQVTVSS | high polyreactivity |
| QVQLVESGGGLVQAGGSLRLSCAASGFTFNCYAMGWYRQAPGKERELVARIRWRGSTYYADSVKGRFTISRDNAKNTVYLQMNSLKPEDTAVYYCAARYYTKLYWGQGTQVTVSS | high polyreactivity |
| QVQLVESGGGLVQAGGSLRLSCAASGRIGKYAMGWYRQAPGKERELVATISSTGTTNYADSVKGRFTISRDNAKNTVYLQMNSLKPEDTAVYYCAADKPSYRTLSWGGYWGQGTQVTVSS | high polyreactivity |
| QVQLVESGGGLVQAGGSLRLSCAASGRIFFDYAMGWYRQAPGKERELVAVITSSGSSTYYADSVKGRFTISRDNAKNTVYLQMNSLKPEDTAVYYCNAARLYSGLWYGYDYWGQGTQVTVSS | high polyreactivity |
| QVQLVESGGGLVQAGGSLRLSCAASGRIFGRYAMGWYRQAPGKERELVAAISVSGGSTYYADSVKGRFTISRDNAKNTVYLQMNSLKPEDTAVYYCATEWRPRYYGTEPFDSWGQGTQVTVSS | high polyreactivity |
| QVQLVESGGGLVQAGGSLRLSSAPSGSTYYVYDMGWYRQAPGKERELVAAITSGGSTNNADSVKGRFTISRDNAKNTVYLEMKSLKPVDTAVYYCAAQGRVWDSYGYEYVQEVTRDYWGQGTQVNVSS | low polyreactivity |
| QVQLVESGGGLVQAGGSLRLSCAASGYTFFVYAMGWYRQAPGKERELVAAIDLNGGSTSYADSVKGRFTISRDNAKNTVYLQMNSLKPEDTAVYYCAAYSWVGYDYDYWGQGTQVTVSS | low polyreactivity |
| QVQLVESGGGLVQAGGSLRLSCAASGFTFYPYTMGWYRQAPGKERELVAVITYDSTYYADSVKGRFTISRDNAKNTVYLQMNSLKPEDTAVYYCNATGYSVSRSAYWYGWYDYWGQGTQVTVSS | low polyreactivity |

| Sequence | polyreactivity (PSR sort gate) |
| --- | --- |
| QVQLVESGGGLVQAGGSLRLSCAASGFTFVVNAMGWYRQAPGKERELVATIRSNGGSTYYADSVKGRFTISRDNAKNTVYLQMNSLKPEDTAVYYCNTDRKHQSGRESAEMDYWGQGTQVTVSS | low polyreactivity |
| QVQLVESGGGLVQAGGSLRLSCAASGSTFSAKTIGGYRQAPGKEMELVAGITITGDTYYADSVKGRFTISRDNAKNTVYLQMNSLKPEDTAVYYCAAAWYEPATQTGYFEFDYWGQGTQVTVSS | low polyreactivity |
| QVHLVESGGGLVKAGGSLRLSCAASGISFGSNVMGLYRQAPGKERELVAAINYGGGSTYYADSVKGRFTISRDNAKNTVYLQMNSLKPEDTAVYYCAARGSRVYRYDYWGQGTQVTVSS | low polyreactivity |
| QVQLVESGGGLVLAGGSLRLSCASSGRIFYGYAMVWSRQAPGKERELVAAITSSGRTYYADSVKGRFSISRDNAKNTVYLLMNSLKPEDTAVYYCNVVTKFTGRGYDFWGQGTQVTVSS | high polyreactivity |
| QVQLVESGGGLVQAGGSLRLSCAASGRTFYRYAMGWYRQAPGKEREFVAAISRCGGSTYYADSVKGRFTISRDNAKNTVFLQMNRLKPEDTGVYYCNADTRAGGFYTPYGRDYWGQGSQVTVSS | high polyreactivity |
| QVQLVESGGGLVQAGGSLRLSCAASGITFDYYAMGWYRQAPGKERELVAAIRSGGSTNYADSVKGRFTISRDNAKNTVYLQMNSLKPVDTAVYYCAAVRYYPWYDYWGQGTQVTVSS | high polyreactivity |
| QVQLVESGGGLVQAGGSLRLSCAASGFIFGYNAMGWYRQAPGKERELVASITINDGSTYYADSVKGRFTISRDNAKNTVYLQMNCLKPEDTAVYYCAAGGWYSLDILPYRYDYWGQGTQVTVSS | low polyreactivity |
| QVQLVESGGGLVQAGGSLRLSCAASGLTFYYNAMGWYRQAPGKERELVAAITWSTDSTYYADSVKGRFTISRDNAKNTVYLQMNSLKPEDTAVYYCAAAVDAFTNKQYYYWGQGTQVTVSS | low polyreactivity |
| QVQLVESGGGLDHAGGRLRLSCAASGSIFIYYAMGWYRQAPGKERELVAAISNGGSTNYADSVKGRFTFSRDNAKNTVYLQMNSLKPEDTAVYYCNTDWGYFHGVRAYLGYGYWGQGTQVTVSS | low polyreactivity |
| QVQLVESGGGLVQAGGSLRLSCPASGFNFSHNAMGWYRQAPGKERELVAAITWSGAITSYADSVKGRFTISRDNAKNTVYLQMNILKPEDTAVYYCAKLWSWDLSRYGPRVDYWGQGTQVTVSS | low polyreactivity |
| QVQLVESGGGLVQAGGSLRLSCAASGSTFAGYAMGWYRQAPGKERELVAAISRGGRTYYADSVKGRFTISRDNAKNTVYLQMNSLKPEDTAVYYCAKYSAWYTYTYDYWGQGTQVTVSS | high polyreactivity |
| QVQLEESGGGLVQAGGSLRLSCAASGRIFYGNSMGWYRQAPGKERELVAAISKRGGSTYYADSVKGRFTISRDNAKNTVYLQMNSLKPEDTAVYYCAASYPTRAWEYDYWGQGTQVTVAS | high polyreactivity |
| QVQLVESGGGLVQAGGSLRLSCAATRRTFYSYAMGWYRQAPGKESELLASITSTGSTYYADSVKGRFTISRDNAKNTVYLQMNSLKPEDTAVYYCAARRQPRYSQRSTYYYWGQGTQVTVSS | high polyreactivity |
| QVQLVESGGGLVQAGGSLRLSCAASGFLFPKNAMGWSRQAPGTEMEWVAAISSGGARTYYADSVKGRFTISRDNAQNSVYEQMNSLKPEDTAVYYCAARTSPFWRGGGLDYWGQGTQVTVSS | high polyreactivity |
| QVQLVESGGGLVQAGGSLRLSCAASGRTFYLYTMGWYRQAPGKERELVAAISRGGRTYADSVKGRFTISRDNAKNTVYLQMNSLKPDDTAVYYCAAESVYHGWSYQHGKGDYWGQGTQVTVSS | low polyreactivity |
| QVQLVESGGGLVQAGGSLRLSCAASGRIFVSYAMGWYRQAPGKERELVAAINWNGDRTYYADSVKGRFTISRDNAKNTVYLQMNSLKPEDSAVYYCNTDSILLPYDYWGQGTQVTVSS | low polyreactivity |
| QVQLVESGGGLVQAGGSLRISFAASGYIFYNYARRSYRQAPGKERELLAAMTRGGSTNYADSVKGRFTISRDNAQNTVYLQMNSLKPEDTAGYYCAAEEGPPWSRYDSWGQGTQVTVSS | low polyreactivity |
| QVPLVESGGGLVQAGGSLRLSCAASGRLFGYNTMGWYRQAPGKERELVARISYDVDSTYYADSVKGRFTISRDNAKNTVYLQMNSLKPEDTAVYYCNARRSNLGSYIEYFGFDYWGQGTQVTVSS | low polyreactivity |
| QVQLVESGGGLVQAGGSLRLSCAASGITFPSYAMGWYRQAPGKEWELVATISRGDSTYYADSVKGRFTISRDNAKNTVYLQMNSLKPEDTAVYYCNARWWFQLYYYSTFAGYNYWGQGTQVTVSS | low polyreactivity |
| QVQLVESGGGLVQAGGSLRLSCAASGFTFVPYAMGWYRQAPGKERETNADSVKGRFTISRDNAKNTVYLQRNSLKPEDTAVYYCAADVWASRRYDYWGQGTQVTVSS | low polyreactivity |
| QVQLVESGGGLVQAGGSLRLSCAASGFTFYRYAMGWYRQAPGKERELVATISASGGSTYYADSVKGRFTISRDNAKNTVYLQMNSLKPEDTAVYYCAAEHYLWGYVVVREDYWGQGTQVTVSS | high polyreactivity |
